For one substance, stoichiometry N results are on record in publication PMC7404976.

This experiment deals with MBP-Vip3Aa11(200-end), the C-terminal fragment of Vip3A toxin with an N-terminal 6xHis-MBP tag (Bacillus thuringiensis strain C9). The experiment can be described thus: crystal structure; MBP-Vip3Aa(200-end) 7 mg/mL, hanging drop at 18 °C, 0.1 M sodium acetate pH 4.2, 0.5 M potassium formate, 0.1 M ammonium sulfate, 11% PEG4000; space group P21, four molecules in one asymmetric unit, 3.2 Å.

Regarding “MBP-Vip3Aa11(200-end), the C-terminal fragment of Vip3A toxin with an N-terminal 6xHis-MBP tag (domain or fragment)”, the stoichiometry N came out at 2.

As usually defined, the stoichiometry N is the number of molecules, sites or subunits per partner or assembly.
